Source: patent publication US20240197879A1 (Memorial Sloan Kettering, published 2024)
One block for each binder: values may come before it.

Key:
[1] = biological target: His tag recombinant human full-length CD33 (human) (UniProt P20138); test: BLI epitope binning: human CD33-His on anti-penta-His biosensor, pre-saturated with 3P14
[2] = biological target: His tag recombinant human full-length CD33 (human) (UniProt P20138); test: BLI epitope binning: human CD33-His on anti-penta-His biosensor, pre-saturated with H195 (self-competition)
[3] = biological target: human CD33 on cells (3T3 cells over-expressing CD33; U937, OCi-AML3, HL60, Set2 AML cells with endogenous CD33) (human) (UniProt P20138); test: flow cytometry on U937 AML cells with endogenous CD33 (U937-CD33), Alexa Fluor 647 anti-human F(ab')2 detection, non-linear regression
[4] = biological target: His tag recombinant human full-length CD33 (human) (UniProt P20138); test: BLI (Octet Red96e): antibody captured on anti-huFc biosensor, huCD33-His as analyte, 1:1 Langmuir fit
[5] = biological target: His tag recombinant human full-length CD33 (human) (UniProt P20138); test: BLI epitope binning: human CD33-His on anti-penta-His biosensor, reference biosensor (buffer), no saturating mAb
[6] = biological target: His tag recombinant human full-length CD33 (human) (UniProt P20138); test: BLI epitope binning: human CD33-His on anti-penta-His biosensor, pre-saturated with 4B2A
[7] = biological target: human CD33 on cells (3T3 cells over-expressing CD33; U937, OCi-AML3, HL60, Set2 AML cells with endogenous CD33) (human) (UniProt P20138); test: flow cytometry on 3T3 cells over-expressing CD33 (3T3-CD33), Alexa Fluor 647 anti-human F(ab')2 detection, non-linear regression
[8] = biological target: T1, His tag recombinant human full-length CD33 (human, UniProt P20138 18-259); test: BLI (Octet Red96e): antibody captured on anti-huFc biosensor, huCD33-His as analyte, 1:1 Langmuir fit
T1 construct: Commercial recombinant protein (R&D Systems / Acro Biosystems); also called huCD33-His; human CD33-His; not shown: 6xHis tag
Experimental: Lead and reference antibodies were produced recombinantly with a human IgG1 constant region. Selectivity was tested using His tag recombinant human full-length CD33 or CD33-IgC, mouse full-length CD33, and cynomolgus full-length CD33 proteins. Recombinant proteins at 5 μg/mL were captured by pre-blocked Ni-NTA plates. Candidate antibodies were added at 10 μg/mL in triplicate and detected using horseradish peroxidase (HRP)-conjugated anti-human Fc antibody. To assess the binding to cell-surface-bound CD33, 3T3 cells overexpressing CD33, as well as the U937 AML cell line, were used. U937 CD33-knockout (CD33KO) or NALM6 cells were included as negative controls. NALM6, U937 CD33⁺, and CD33KO cells were blocked with human IgG Fc for 20 minutes on ice. The recombinant antibodies were then serially diluted starting at 100 μg/mL concentration and added for 30 minutes on ice. Alexa Fluor 647-conjugated goat anti-human F(ab′)₂ was added to cells for 30 minutes on ice, washed and analyzed by flow cytometry, and normalized to secondary-only staining (MFI ratio). EC₅₀ values were determined by non-linear regression. The binding affinity and epitope binning to human CD33 protein was measured by biolayer interferometry (BLI) using an Octet Red96e. All experiments were carried out using kinetic buffer (PBS pH 7.4, 0.01% BSA, 0.002% Tween-20). […]

Chain of His tag recombinant human full-length CD33 (human) (P20138 18-259): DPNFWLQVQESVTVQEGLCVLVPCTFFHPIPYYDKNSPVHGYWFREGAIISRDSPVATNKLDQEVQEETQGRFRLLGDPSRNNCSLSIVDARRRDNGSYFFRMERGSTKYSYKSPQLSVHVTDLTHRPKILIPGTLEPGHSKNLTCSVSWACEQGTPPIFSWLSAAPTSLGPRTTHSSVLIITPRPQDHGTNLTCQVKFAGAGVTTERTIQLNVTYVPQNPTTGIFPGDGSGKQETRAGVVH
Chain of human CD33 on cells (3T3 cells over-expressing CD33; U937, OCi-AML3, HL60, Set2 AML cells with endogenous CD33) (human) (P20138 18-364 limits assumed): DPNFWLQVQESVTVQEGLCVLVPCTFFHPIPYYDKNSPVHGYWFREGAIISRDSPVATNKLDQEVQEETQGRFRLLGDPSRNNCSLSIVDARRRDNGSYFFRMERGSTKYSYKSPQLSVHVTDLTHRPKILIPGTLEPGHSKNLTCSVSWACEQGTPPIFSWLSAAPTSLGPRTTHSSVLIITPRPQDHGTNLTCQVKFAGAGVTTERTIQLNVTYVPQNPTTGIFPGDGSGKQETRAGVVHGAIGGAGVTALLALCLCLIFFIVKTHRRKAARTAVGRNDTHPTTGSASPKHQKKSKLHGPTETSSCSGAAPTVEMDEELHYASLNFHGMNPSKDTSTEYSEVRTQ
T1 sequence (P20138 18-259): as the sequence (P20138 18-259) above

- binding of competing mAb, % of reference biosensor [1]: 78%
- binding of competing mAb, % of reference biosensor [2]: 5%
- EC50 [3]: 0.4 nM
- Kd [4]: 1.22 nM
- kon [4]: 358000 M⁻¹ s⁻¹
- binding of competing mAb, % of reference biosensor [5]: 100%
- binding of competing mAb, % of reference biosensor [6]: 100%
- EC50 [7]: 4.8 nM
B1: H195 (lintuzumab) (antibody, part only; not given: constant regions, human IgG1, V domains shown, not shown: another chain or arm of the molecule)
VH: QVQLVQSGAEVKKPGSSVKVSCKASGYTFTDYNMHWVRQAPGQGLEWIGYIYPYNGGTGYNQKFKSKATITADESTNTAYMELSSLRSEDTAVYYCARGRPAMDYWGQGTLVTVSS
VL: DIQMTQSPSSLSASVGDRVTITCRASESVDNYGISFMNWFQQKPGKAPKLLIYAASNQGSGVPSRFSGSGSGTDFTLTISSLQPDDFATYYCQQSKEVPWTFGQGTKVEIK

- Kd [8]: 12.9 nM
B2: 4B2A (antibody, V domains shown)
VH: EVHLLESGGGLVQPGGSLRLSCAASGFIFSSNAMSWVRQAPGKGLEWVSAISGYGGNTYYADSVKGRFTISRDNSKNTLYLQMNSLRAEDTAVYYCAKWGTYIVGATGDYWGQGTLVTVSS
VL: QSALTQPPSASGSPGQSVTISCTGTSNDVGGYNYVSWYQQHPGKAPKLLIYEVSKRPSGVPDRFSGSQSGNTASLTVSGLQAEDEADYYCSSYAGSNNWVFGGGTKLTVL
notes: also called TDI-Y-007

- Kd [8]: 12.1 nM
B3: 3P14 (antibody, V domains shown)
VH: EVQLLESGGGLVQPGGSLRLSCAASGFTFSTYAMSWVRQAPGKGLEWVSAISGRGGSTYYTDSVKGRFTISRDNSKNTVSLQMNSLRAEDTAVYYCAGRGDYYYYYGMDVWGQGTTVTVSA
VL: DIVMTQSPLSSPVTLGQPASFSCRSSQSLVYSDGNTYLSWLQQRPGQPPRLLIYKISNRFSGVPDRFSGSGAGTDFTLKISRVEAEDVGVYYCMQSTQFPHTFGQGTKLEIK
notes: Hybridoma-derived mAb from AlivaMab mice; also called TDI-Y-006
